Measurements taken from the nanobody polyreactivity screen of Harvey et al. (2022).

Assay: yeast display, Sf9 membrane polyspecificity reagent, FACS + sequencing; frameworks hold sequencing errors
Outline: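 Galactose-induced (36–48 hours) yeast carrying a synthetic nanobody display library were exposed to 10% biotinylated, detergent-solubilized Sf9 membrane reagent at 4 °C for 1 hour. FACS followed streptavidin microbead enrichment, using low and high (top ~1%) gates for expression (anti-HA) and reagent binding (streptavidin). Colony PCR, MiSeq 2 × 250 sequencing and CDR-length filtering followed. Labels for polyreactivity reflect the gate of origin.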

Sequence	polyreactivity (PSR sort gate)
QVQLVESGGGLVQAGGSLRFSCAASGITFVDYAMGWYRQAPGKEREFVAGISESGGSTYYADSVKGRFTISRDNAKNTVYLQMNSLKPEDTAVYYCAADPYVDSYDSWGQGTQVTVSS	low polyreactivity
QVQLVESGGGLVQAGGSLRLSCAASGRTFWFNAMGWYRQAPGKARELVAAISGITGSTYYADSVKGRITISRDNAKNTVYLQMNSLKPEATAVYYCATNRRGTWDYDYWGQGTQVTVSS	low polyreactivity
QVQLVESGGGLVQAGGSLRLICAASGSTYSYYAMAWYRQAPGKERELVAAINSSGGSTYYADSEKGRFTISRDKAKNTVYLQMNSLKPEDTAVYYGAAARRRTGVRMDYWGQGTQVTVSS	high polyreactivity
QVQLVESGGGLVQAGGSLRLSCAASGFTFTQNAAMGWYRQAPGKERELVGAISSGGRTYFADSVKGRFTISRDNAKNTVYLQMNSLKPEDTAVYYCAAVYRRSDFRGAKDGYYYWGQGTQVTVSS	low polyreactivity
QVQLQESGGGLVQAGGSLRPLCAAGGTIFVSVNMRLYRHAPGEEREFVASITQGATTNYADSLIGRFTISRDNAKNTVYLLMNCQKPEDTEVYYCAVHESGGITFTYWGQGTQVTVSS	high polyreactivity
QVQLVESGGGLVQAGGSLRLSCAASGFIFDVYAMGWYRQAPGKERELVAAITSGDGTNYADSVKGRFTISRDNAKNTVYLQMNSLKPEDTAVYYCAADDGVTYRGIIFSYWGQGTQVTVSS	low polyreactivity
QVQLVESVGGLVQAGGCLRLSCDASGFIFTYVMGWYRQAAGKERELVAVITNGGSTYYADSVKGRFTISRDNAKNSFYLQMNSLKPEDTAVYYCAARDRFRYDAYYYWGLGTQVTVSS	high polyreactivity
QDQLVESGGGLVQAGGSLRLSCAASGLTFDKYVMGWYRQAPGKERELVAAITKGGGSTYYADSVKGRFTISRDNAKNTVYLQMNSLKPEDTAVYYCAVTRPLRYWGQGTQVTVSS	high polyreactivity
QVQLVESGGGLVQAGGRLRLSCAASGSILVFYARGWYRQAPGKERELVAAITSGASTNYADSVKGRFTISRDNAKNTVYLQMNSLKPEDTAVYYCAAGFQTRTPLNEFDYWGQGTQVTVSS	low polyreactivity
QVQLVESGGGLVQAGGSLRLSCAASGGTFHSNAMGWYRQAPGKERELVAAISWSDDTTYYADSVKGRFTISRDNAKNTVYLQINSLKPDDTAVYYCATVFFVLPPSRFDSWGQGTQVTVSS	low polyreactivity
QVQLVESVGGLVQAGGSLRLSCAASGRIFVHYVMGWYRQAPGKERELVAAISRSGGRTYYADSVKGRFTISRDNAKNSVYLQMNSLKPEDTAVYYCATDASTYKYDYWGQGTQVTVSS	high polyreactivity
QVQLVESGGGLVQAGGSLRLSCAASGSISGYYVKGWYRQAQGKERELVAAITWRGGSTYYADSVKGRFTISRDNAKNTVYLQMNSLKPEDTAVYYCNKVPGRRSTFEYWGQGTQVTVSS	high polyreactivity
QVQLVESGGGLVQAGGSLRFSCPASGLIFYYYVMGWYRQAPGKEREFVAAIRYRSSSTYYADSVKGRFTISRVNAKNTVYLQMNSVKPEDTAVYYCGADIYTYNLFYHGRWLDYNYWGQGTQVTVSS	high polyreactivity
QVQLVESGGGLVQAGVSLRLSCAASGSIFGFNAMGWYRQAPGKEWELVAAINNGGSTNYADSVKGRFTISRDNAKNTVYLQMNSLKPEDTAVYYFAAERWFYRSKFDYWGQGTQVTVSS	high polyreactivity
QVQLVESGGGLVQAGGSLRLSCAASGSTFKRNAMGWYRQAPGKERELVAAISFRGGSTYYADSVKGRFTISRDNAKNTVYLQMNSLKPEDTAVYSCAAGIYRIRGGGISFDYWGQGTQVTVSS	high polyreactivity
QVQLVQSGGGLVQAGGSLRLSCAASGRIFGSYAMGWSRQAPGKERELGAAISYSGGSTYYADSVKGRFTMSRDNAKNTVYLQMHSLKPEDTAVYYCNVDRYYGYFSVRGGYWGQGTQGTVSS	low polyreactivity
QVQLVESGGGLVQAGGSLRLSCAASGSIFLGNAMGWYRQAPGKERELVAAITSRGGRTYYADSVKGRFTISRDNAKNTVYLQMISLKPEDTAVYYCAADVSRPRAGFNYWGQGTQVTVSS	high polyreactivity
